The results in this text go back to PMC7774078.

Substrate in the data set: NS(=O)(=O)c1cc(C(=O)O)c(NCc2ccco2)cc1Cl
The experiment in a line: cells, lysate or membranes. The following applies: ATP, Mg2+.

B1: multidrug resistance-associated protein 4 (MRP4) (Homo sapiens) (protein)
chain: MLPVYQEVKPNPLQDANLCSRVFFWWLNPLFKIGHKRRLEEDDMYSVLPEDRSQHLGEELQGFWDKEVLRAENDAQKPSLTRAIIKCYWKSYLVLGIFTLIEESAKVIQPIFLGKIINYFENYDPMDSVALNTAYAYATVLTFCTLILAILHHLYFYHVQCAGMRLRVAMCHMIYRKALRLSNMAMGKTTTGQIVNLLSNDVNKFDQVTVFLHFLWAGPLQAIAVTALLWMEIGISCLAGMAVLIILLPLQSCFGKLFSSLRSKTATFTDARIRTMNEVITGIRIIKMYAWEKSFSNLITNLRKKEISKILRSSCLRGMNLASFFSASKIIVFVTFTTYVLLGSVITASRVFVAVTLYGAVRLTVTLFFPSAIERVSEAIVSIRRIQTFLLLDEISQRNRQLPSDGKKMVHVQDFTAFWDKASETPTLQGLSFTVRPGELLAVVGPVGAGKSSLLSAVLGELAPSHGLVSVHGRIAYVSQQPWVFSGTLRSNILFGKKYEKERYEKVIKACALKKDLQLLEDGDLTVIGDRGTTLSGGQKARVNLARAVYQDADIYLLDDPLSAVDAEVSRHLFELCICQILHEKITILVTHQLQYLKAASQILILKDGKMVQKGTYTEFLKSGIDFGSLLKKDNEESEQPPVPGTPTLRNRTFSESSVWSQQSSRPSLKDGALESQDTENVPVTLSEENRSEGKVGFQAYKNYFRAGAHWIVFIFLILLNTAAQVAYVLQDWWLSYWANKQSMLNVTVNGGGNVTEKLDLNWYLGIYSGLTVATVLFGIARSLLVFYVLVNSSQTLHNKMFESILKAPVLFFDRNPIGRILNRFSKDIGHLDDLLPLTFLDFIQTLLQVVGVVSVAVAVIPWIAIPLVPLGIIFIFLRRYFLETSRDVKRLESTTRSPVFSHLSSSLQGLWTIRAYKAEERCQELFDAHQDLHSEAWFLFLTTSRWFAVRLDAICAMFVIIVAFGSLILAKTLDAGQVGLALSYALTLMGMFQWCVRQSAEVENMMISVERVIEYTDLEKEAPWEYQKRPPPAWPHEGVIIFDNVNFMYSPGGPLVLKHLTALIKSQEKVGIVGRTGAGKSSLISALFRLSEPEGKIWIDKILTTEIGLHDLRKKMSIIPQEPVLFTGTMRKNLDPFNEHTDEELWNALQEVQLKETIEDLPGKMDTELAESGSNFSVGQRQLVCLARAILRKNQILIIDEATANVDPRTDELIQKKIREKFAHCTVLTIAHRLNTIIDSDKIMVLDSGRLKEYDEPYVLLQNKESLFYKMVQQLGKAEAAALTETAKQVYFKRNYPHIGHTDHMVTNTSNGQPSTLTIFETAL
As a reminder, the Km is the concentration of substrate that gives half-maximal velocity. Take B1: the Km amounted to 27.96 µM.
